Measured values from patent publication US20120270273.

How the values were obtained:
Experiment in all cases: cell_activity
[1] = system: ZF-VP64 (erbB-2 zinc finger) (synthetic); conditions: mCherry reporter induction, 293FT; positive control
[2] = system: Klf4-dTALE (synthetic (Xanthomonas campestris pv. armoraciae Hax3 scaffold)); conditions: mCherry reporter; endogenous KLF4 mRNA up 2.2±0.1 fold (p227)
[3] = system: cMyc-dTALE (synthetic (Xanthomonas campestris pv. armoraciae Hax3 scaffold)); conditions: mCherry reporter, 293FT
[4] = system: Sox2-dTALE (synthetic (Xanthomonas campestris pv. armoraciae Hax3 scaffold)); conditions: mCherry reporter; endogenous SOX2 mRNA up 5.5±0.1 fold (p227)

erbB-2 promoter ZF site
activity [1]: 16 fold

KLF4 proximal promoter site
activity [2]: > 20 fold

c-MYC proximal promoter site
activity [3]: > 20 fold

SOX2 proximal promoter site
activity [4]: > 20 fold
